Experimental data as given in article PMC10739154, “Reinvestigation of Disulfide-bonded Oligomeric Forms of the Unfolded Protein Response Transducer ATF6” (Cell Structure and Function, 2019).

B1: ATF6α (endogenous, HCT116 cells) (natural protein, human (endogenous in HCT116), UniProt P18850 1-670, looked up)
chain: MGEPAGVAGTMESPFSPGLFHRLDEDWDSALFAELGYFTDTDELQLEAANETYENNFDNLDFDLDLMPWESDIWDINNQICTVKDIKAEPQPLSPASSSYSVSSPRSVDSYSSTQHVPEELDLSSSSQMSPLSLYGENSNSLSSAEPLKEDKPVTGPRNKTENGLTPKKKIQVNSKPSIQPKPLLLPAAPKTQTNSSVPAKTIIIQTVPTLMPLAKQQPIISLQPAPTKGQTVLLSQPTVVQLQAPGVLPSAQPVLAVAGGVTQLPNHVVNVVPAPSANSPVNGKLSVTKPVLQSTMRNVGSDIAVLRRQQRMIKNRESACQSRKKKKEYMLGLEARLKAALSENEQLKKENGTLKRQLDEVVSENQRLKVPSPKRRVVCVMIVLAFIILNYGPMSMLEQDSRRMNPSVSPANQRRHLLGFSAKEAQDTSDGIIQKNSYRYDHSVSNDKALMVLTEEPLLYIPPPPCQPLINTTESLRLNHELRGWVHRHEVERTKSRRMTNNQQKTRILQGALEQGSNSQLMAVQYTETTSSISRNSGSELQVYYASPRSYQDFFEAIRRRGDTFYVVSFRRDHLLLPATTHNKTTRPKMSIVLPAININENVINGQDYEVMMQIDCQVMDTRILHIKSSSVPPYLRDQQRNQTNTFFGSPPAATEATHVVSTIPESLQ
notes: ATF6α, endogenous in human colorectal carcinoma-derived HCT116 cells; also called pATF6α(P); source: endogenous, HCT116 WT cell lysate
B2: HA-ATF6α(WT) (natural protein, human, UniProt P18850 1-670, looked up)
chain: MGEPAGVAGTMESPFSPGLFHRLDEDWDSALFAELGYFTDTDELQLEAANETYENNFDNLDFDLDLMPWESDIWDINNQICTVKDIKAEPQPLSPASSSYSVSSPRSVDSYSSTQHVPEELDLSSSSQMSPLSLYGENSNSLSSAEPLKEDKPVTGPRNKTENGLTPKKKIQVNSKPSIQPKPLLLPAAPKTQTNSSVPAKTIIIQTVPTLMPLAKQQPIISLQPAPTKGQTVLLSQPTVVQLQAPGVLPSAQPVLAVAGGVTQLPNHVVNVVPAPSANSPVNGKLSVTKPVLQSTMRNVGSDIAVLRRQQRMIKNRESACQSRKKKKEYMLGLEARLKAALSENEQLKKENGTLKRQLDEVVSENQRLKVPSPKRRVVCVMIVLAFIILNYGPMSMLEQDSRRMNPSVSPANQRRHLLGFSAKEAQDTSDGIIQKNSYRYDHSVSNDKALMVLTEEPLLYIPPPPCQPLINTTESLRLNHELRGWVHRHEVERTKSRRMTNNQQKTRILQGALEQGSNSQLMAVQYTETTSSISRNSGSELQVYYASPRSYQDFFEAIRRRGDTFYVVSFRRDHLLLPATTHNKTTRPKMSIVLPAININENVINGQDYEVMMQIDCQVMDTRILHIKSSSVPPYLRDQQRNQTNTFFGSPPAATEATHVVSTIPESLQ
notes: ATF6α, human, full length; Plasmid from R. Prywes (Wang et al., 2000); also called HA-tagged WT; HA-tagged ATF6α WT; source: HCT116 ATF6α/β-DKO cells, transfected, in lysate; not shown: HA, N-terminal, kept
B3: C467A mutant of ATF6α-TAP (natural protein, human, UniProt P18850 1-670, looked up)
chain: MGEPAGVAGTMESPFSPGLFHRLDEDWDSALFAELGYFTDTDELQLEAANETYENNFDNLDFDLDLMPWESDIWDINNQICTVKDIKAEPQPLSPASSSYSVSSPRSVDSYSSTQHVPEELDLSSSSQMSPLSLYGENSNSLSSAEPLKEDKPVTGPRNKTENGLTPKKKIQVNSKPSIQPKPLLLPAAPKTQTNSSVPAKTIIIQTVPTLMPLAKQQPIISLQPAPTKGQTVLLSQPTVVQLQAPGVLPSAQPVLAVAGGVTQLPNHVVNVVPAPSANSPVNGKLSVTKPVLQSTMRNVGSDIAVLRRQQRMIKNRESACQSRKKKKEYMLGLEARLKAALSENEQLKKENGTLKRQLDEVVSENQRLKVPSPKRRVVCVMIVLAFIILNYGPMSMLEQDSRRMNPSVSPANQRRHLLGFSAKEAQDTSDGIIQKNSYRYDHSVSNDKALMVLTEEPLLYIPPPPAQPLINTTESLRLNHELRGWVHRHEVERTKSRRMTNNQQKTRILQGALEQGSNSQLMAVQYTETTSSISRNSGSELQVYYASPRSYQDFFEAIRRRGDTFYVVSFRRDHLLLPATTHNKTTRPKMSIVLPAININENVINGQDYEVMMQIDCQVMDTRILHIKSSSVPPYLRDQQRNQTNTFFGSPPAATEATHVVSTIPESLQ
notes: ATF6α, human, full length, C467A; also called ATF6α(C467A)-TAP; source: HCT116 ATF6α/β-DKO cells, transfected, in lysate
B4: EGFP-ATF6α(WT) (natural protein, human, UniProt P18850 1-670, looked up)
chain: MGEPAGVAGTMESPFSPGLFHRLDEDWDSALFAELGYFTDTDELQLEAANETYENNFDNLDFDLDLMPWESDIWDINNQICTVKDIKAEPQPLSPASSSYSVSSPRSVDSYSSTQHVPEELDLSSSSQMSPLSLYGENSNSLSSAEPLKEDKPVTGPRNKTENGLTPKKKIQVNSKPSIQPKPLLLPAAPKTQTNSSVPAKTIIIQTVPTLMPLAKQQPIISLQPAPTKGQTVLLSQPTVVQLQAPGVLPSAQPVLAVAGGVTQLPNHVVNVVPAPSANSPVNGKLSVTKPVLQSTMRNVGSDIAVLRRQQRMIKNRESACQSRKKKKEYMLGLEARLKAALSENEQLKKENGTLKRQLDEVVSENQRLKVPSPKRRVVCVMIVLAFIILNYGPMSMLEQDSRRMNPSVSPANQRRHLLGFSAKEAQDTSDGIIQKNSYRYDHSVSNDKALMVLTEEPLLYIPPPPCQPLINTTESLRLNHELRGWVHRHEVERTKSRRMTNNQQKTRILQGALEQGSNSQLMAVQYTETTSSISRNSGSELQVYYASPRSYQDFFEAIRRRGDTFYVVSFRRDHLLLPATTHNKTTRPKMSIVLPAININENVINGQDYEVMMQIDCQVMDTRILHIKSSSVPPYLRDQQRNQTNTFFGSPPAATEATHVVSTIPESLQ
notes: ATF6α, human, tagged with EGFP at the N-terminus; Constructed in previous studies (Nadanaka et al., 2007; 2004); source: HCT116 ATF6α/β-DKO cells, transfected, in lysate; not shown: EGFP, N-terminal, kept
B5: C618A mutant of ATF6α-TAP (natural protein, human, UniProt P18850 1-670, looked up)
chain: MGEPAGVAGTMESPFSPGLFHRLDEDWDSALFAELGYFTDTDELQLEAANETYENNFDNLDFDLDLMPWESDIWDINNQICTVKDIKAEPQPLSPASSSYSVSSPRSVDSYSSTQHVPEELDLSSSSQMSPLSLYGENSNSLSSAEPLKEDKPVTGPRNKTENGLTPKKKIQVNSKPSIQPKPLLLPAAPKTQTNSSVPAKTIIIQTVPTLMPLAKQQPIISLQPAPTKGQTVLLSQPTVVQLQAPGVLPSAQPVLAVAGGVTQLPNHVVNVVPAPSANSPVNGKLSVTKPVLQSTMRNVGSDIAVLRRQQRMIKNRESACQSRKKKKEYMLGLEARLKAALSENEQLKKENGTLKRQLDEVVSENQRLKVPSPKRRVVCVMIVLAFIILNYGPMSMLEQDSRRMNPSVSPANQRRHLLGFSAKEAQDTSDGIIQKNSYRYDHSVSNDKALMVLTEEPLLYIPPPPCQPLINTTESLRLNHELRGWVHRHEVERTKSRRMTNNQQKTRILQGALEQGSNSQLMAVQYTETTSSISRNSGSELQVYYASPRSYQDFFEAIRRRGDTFYVVSFRRDHLLLPATTHNKTTRPKMSIVLPAININENVINGQDYEVMMQIDAQVMDTRILHIKSSSVPPYLRDQQRNQTNTFFGSPPAATEATHVVSTIPESLQ
notes: ATF6α, human, full length, C618A; also called ATF6α(C618A)-TAP; source: HCT116 ATF6α/β-DKO cells, transfected, in lysate
B6: HA-ATF6α(C467A) (natural protein, human, UniProt P18850 1-670, looked up)
chain: MGEPAGVAGTMESPFSPGLFHRLDEDWDSALFAELGYFTDTDELQLEAANETYENNFDNLDFDLDLMPWESDIWDINNQICTVKDIKAEPQPLSPASSSYSVSSPRSVDSYSSTQHVPEELDLSSSSQMSPLSLYGENSNSLSSAEPLKEDKPVTGPRNKTENGLTPKKKIQVNSKPSIQPKPLLLPAAPKTQTNSSVPAKTIIIQTVPTLMPLAKQQPIISLQPAPTKGQTVLLSQPTVVQLQAPGVLPSAQPVLAVAGGVTQLPNHVVNVVPAPSANSPVNGKLSVTKPVLQSTMRNVGSDIAVLRRQQRMIKNRESACQSRKKKKEYMLGLEARLKAALSENEQLKKENGTLKRQLDEVVSENQRLKVPSPKRRVVCVMIVLAFIILNYGPMSMLEQDSRRMNPSVSPANQRRHLLGFSAKEAQDTSDGIIQKNSYRYDHSVSNDKALMVLTEEPLLYIPPPPAQPLINTTESLRLNHELRGWVHRHEVERTKSRRMTNNQQKTRILQGALEQGSNSQLMAVQYTETTSSISRNSGSELQVYYASPRSYQDFFEAIRRRGDTFYVVSFRRDHLLLPATTHNKTTRPKMSIVLPAININENVINGQDYEVMMQIDCQVMDTRILHIKSSSVPPYLRDQQRNQTNTFFGSPPAATEATHVVSTIPESLQ
notes: ATF6α, human, full length, C467A; Constructed in previous studies (Nadanaka et al., 2007; 2004); also called HA-tagged C467A mutant; source: HCT116 ATF6α/β-DKO cells, transfected, in lysate; not shown: HA, N-terminal, kept
B7: EGFP-ATF6α(C618A) (natural protein, human, UniProt P18850 1-670, looked up)
chain: MGEPAGVAGTMESPFSPGLFHRLDEDWDSALFAELGYFTDTDELQLEAANETYENNFDNLDFDLDLMPWESDIWDINNQICTVKDIKAEPQPLSPASSSYSVSSPRSVDSYSSTQHVPEELDLSSSSQMSPLSLYGENSNSLSSAEPLKEDKPVTGPRNKTENGLTPKKKIQVNSKPSIQPKPLLLPAAPKTQTNSSVPAKTIIIQTVPTLMPLAKQQPIISLQPAPTKGQTVLLSQPTVVQLQAPGVLPSAQPVLAVAGGVTQLPNHVVNVVPAPSANSPVNGKLSVTKPVLQSTMRNVGSDIAVLRRQQRMIKNRESACQSRKKKKEYMLGLEARLKAALSENEQLKKENGTLKRQLDEVVSENQRLKVPSPKRRVVCVMIVLAFIILNYGPMSMLEQDSRRMNPSVSPANQRRHLLGFSAKEAQDTSDGIIQKNSYRYDHSVSNDKALMVLTEEPLLYIPPPPCQPLINTTESLRLNHELRGWVHRHEVERTKSRRMTNNQQKTRILQGALEQGSNSQLMAVQYTETTSSISRNSGSELQVYYASPRSYQDFFEAIRRRGDTFYVVSFRRDHLLLPATTHNKTTRPKMSIVLPAININENVINGQDYEVMMQIDAQVMDTRILHIKSSSVPPYLRDQQRNQTNTFFGSPPAATEATHVVSTIPESLQ
notes: ATF6α, human, C618A, tagged with EGFP at the N-terminus; Constructed in previous studies (Nadanaka et al., 2007; 2004); source: HCT116 ATF6α/β-DKO cells, transfected, in lysate; not shown: EGFP, N-terminal, kept
B8: EGFP-ATF6α(C467A) (natural protein, human, UniProt P18850 1-670, looked up)
chain: MGEPAGVAGTMESPFSPGLFHRLDEDWDSALFAELGYFTDTDELQLEAANETYENNFDNLDFDLDLMPWESDIWDINNQICTVKDIKAEPQPLSPASSSYSVSSPRSVDSYSSTQHVPEELDLSSSSQMSPLSLYGENSNSLSSAEPLKEDKPVTGPRNKTENGLTPKKKIQVNSKPSIQPKPLLLPAAPKTQTNSSVPAKTIIIQTVPTLMPLAKQQPIISLQPAPTKGQTVLLSQPTVVQLQAPGVLPSAQPVLAVAGGVTQLPNHVVNVVPAPSANSPVNGKLSVTKPVLQSTMRNVGSDIAVLRRQQRMIKNRESACQSRKKKKEYMLGLEARLKAALSENEQLKKENGTLKRQLDEVVSENQRLKVPSPKRRVVCVMIVLAFIILNYGPMSMLEQDSRRMNPSVSPANQRRHLLGFSAKEAQDTSDGIIQKNSYRYDHSVSNDKALMVLTEEPLLYIPPPPAQPLINTTESLRLNHELRGWVHRHEVERTKSRRMTNNQQKTRILQGALEQGSNSQLMAVQYTETTSSISRNSGSELQVYYASPRSYQDFFEAIRRRGDTFYVVSFRRDHLLLPATTHNKTTRPKMSIVLPAININENVINGQDYEVMMQIDCQVMDTRILHIKSSSVPPYLRDQQRNQTNTFFGSPPAATEATHVVSTIPESLQ
notes: ATF6α, human, C467A, tagged with EGFP at the N-terminus; Constructed in previous studies (Nadanaka et al., 2007; 2004); source: HCT116 ATF6α/β-DKO cells, transfected, in lysate; not shown: EGFP, N-terminal, kept

Tests used:
[1] = target: C467A mutant of ATF6α(Δ244)-TAP (human); assay: non-reducing SDS-PAGE with immunoblotting; ATF6α-TAP constructs of various lengths at the N-terminus in HCT116 DKO cells; lysates on non-reducing SDS-PAGE; blot with anti-Myc; shows disulfide-bonded forms
[2] = target: C618A mutant of ATF6α(Δ244)-TAP (human); assay: as above
[3] = target: the molecule itself; assay: non-reducing SDS-PAGE with immunoblotting; one form of ATF6α in the cells; lysis in 1% NP-40 buffer (50 mM Tris/HCl pH 7.5, 150 mM NaCl, 10 mM N-ethylmaleimide), boiled in SDS sample buffer without dithiothreitol; blot with anti-ATF6α; shows disulfide-bonded forms
[4] = target: the molecule itself; assay: non-reducing SDS-PAGE with immunoblotting; ATF6α-TAP constructs of various lengths at the N-terminus in HCT116 DKO cells; lysates on non-reducing SDS-PAGE; blot with anti-Myc; shows disulfide-bonded forms

| Molecule | stoichiometry N [3] | also measured |
| --- | --- | --- |
| C467A mutant of ATF6α(Δ244)-TAP (domain or fragment) |  | stoichiometry N [1]: 2 |
| C618A mutant of ATF6α(Δ244)-TAP (domain or fragment) |  | stoichiometry N [2]: 2 |
| B1 | 2 |  |
| B2 | 2 |  |
| B3 |  | stoichiometry N [4]: 2 |
| B4 | 2 |  |
| B5 |  | stoichiometry N [4]: 2 |
| B6 | 2 |  |
| B7 | 2 |  |
| B8 | 2 |  |
